From publication PMC3798187

Tests used:
[1] = target: FLAG-RACK1 WD1–4 (human RACK1 in which WD40 domains 5 to 7 have been deleted) (human); assay: co-IP; anti-FLAG immunoprecipitation (protein A magnetic beads) from extracts of mRNA-injected Xenopus embryos in EB buffer, 1 h at 4°C; Western blots with anti-xMELK, anti-RACK1, anti-FLAG or anti-myc antibodies; uninjected embryos as control
[2] = target: FLAG-RACK1 WD5–7 (human RACK1 in which WD40 domains 1 to 4 have been deleted) (human); assay: as above

myc-tagged xMELK (from UniProt Q91821 1-651) (enzyme)
fold of myc-xMELK co-immunoprecipitated (myc/FLAG ratio) compared to full length FLAG-RACK1 [1]: 2.1 times | fold of myc-xMELK co-immunoprecipitated (myc/FLAG ratio) compared to full length FLAG-RACK1 [2]: 0.7 times
